In patent US9289478B2, “Formulations of tumour-associated peptides binding to human leukocyte antigen (HLA) class I or class II molecules for vaccine” (IMMATICS BIOTECHNOLOGIES GMBH, priority 2008, dated 2016):
Ends that are not written are not given here.

What was measured:
Assay type in all cases: physicochemical
[1] = Solubility of peptide in 90% acetic acid and in water
Excerpt: Advantageously, the formulation according to the invention is suitable for stable formulations containing very hydrophobic peptides (for example IMA-CHI-001; SEQ ID NO: 23).

[2] = HPLC-assay for in-use stability after reconstitution with 4.2% sodium hydrogen carbonate solution (Example 3, peptides SEQ ID NO 11-23)
Protocol: For clinical trials the above described formulation is dissolved in 700 μl sodium hydrogen carbonate (4.2%). To dissolve the lyophilisate, the vial and the diluent shall be shaken vigorously for 1 minute, check whether solution is clear, otherwise continue shaking for another minute until the solution is clear. Administration of 500 μL of the solution has to occur within 1 h after reconstitution. Dissolved lyophilisate may be stored aseptically at room temperature for up to 1 hour following reconstitution.
(§1) Identity, purity and peptide content are determined by analytical RP-HPLC chromatography. Detection wavelength was 220 nm.

[3] = HPLC-assay for stability of peptides in lyophilised formulation on storage for 3 months (Example 4); conditions: for stability of peptides in formulation, 1 M: 1 month; for stability of peptides in formulation, 2 M: 2 months; for stability of peptides in formulation, 3 M: 3 months
Protocol: as §1

Sequence	in-use stability, Peptide [%] ([2]; +Mannitol/Lutrol, 2h)	in-use stability, Peptide [%] ([2]; +Mannitol/Lutrol, 6h)	in-use stability, Peptide [%] ([2]; +Mannitol/Lutrol, Initial)	in-use stability, Peptide [%] ([2]; no excipients, 2h)	in-use stability, Peptide [%] ([2]; no excipients, 6h)	in-use stability, Peptide [%] ([2]; no excipients, Initial)	in-use stability, Peptide [%] ([2]; +Mannitol/Lutrol, 4h)	in-use stability, Peptide [%] ([2]; no excipients, 4h)	stability of peptides in formulation, 1 M ([3]; +5° C. +/- 3° C.)	stability of peptides in formulation, 2 M ([3]; +5° C. +/- 3° C.)	stability of peptides in formulation, 3 M ([3]; +5° C. +/- 3° C.)	stability of peptides in formulation, INITIAL ([3]; +5° C. +/- 3° C.) [%]	stability of peptides in formulation, 1 M ([3]; +25° C. +/- 2° C.)	stability of peptides in formulation, 2 M ([3]; +25° C. +/- 2° C.)	stability of peptides in formulation, 3 M ([3]; +25° C. +/- 2° C.)	stability of peptides in formulation, INITIAL ([3]; +25° C. +/- 2° C.) [%]	stability of peptides in formulation, 1 M ([3]; -20° C. +/- 5° C.)	stability of peptides in formulation, 2 M ([3]; -20° C. +/- 5° C.)	stability of peptides in formulation, 3 M ([3]; -20° C. +/- 5° C.)	stability of peptides in formulation, INITIAL ([3]; -20° C. +/- 5° C.) [%]	further results
SLWAGVVVL [CHI-001]	100.0	100.2	100.0	102.2	90.6	100.0	–	–	–	–	–	–	–	–	–	–	–	–	–	–	solubility ([1]; 90% acetic acid): ~2900 µg/mL; solubility in water ([1]; water): very insoluble
TMLARLASA (listed as Homo sapiens) [CSP-001, Chondroitin sulfate proteoglycan 4 peptide]	100.0	99.6	100.0	99.2	95.0	100.0	100.1	99.7	98.99 % of Initial	98.05 % of Initial	99.81 % of Initial	100.0	98.04 % of Initial	96.99 % of Initial	98.71 % of Initial	100.0	98.99 % of Initial	97.61 % of Initial	99.61 % of Initial	100.0	–
TFSYVDPVITSISPKYG (listed as Homo sapiens) [MET-005, Met proto-oncogene peptide]	100.5	100.4	100.0	100.3	96.0	100.0	100.7	100.7	99.06 % of Initial	97.92 % of Initial	98.59 % of Initial	100.0	97.49 % of Initial	96.13 % of Initial	97.21 % of Initial	100.0	99.14 % of Initial	97.54 % of Initial	99.00 % of Initial	100.0	–
LTFGDVVAV (listed as Homo sapiens) [FABP7-001]	100.9	100.6	100.0	100.5	96.3	100.0	100.7	100.9	99.08 % of Initial	98.15 % of Initial	98.66 % of Initial	100.0	98.43 % of Initial	97.71 % of Initial	98.67 % of Initial	100.0	99.09 % of Initial	97.60 % of Initial	98.39 % of Initial	100.0	–
AIIDGVESV (listed as Homo sapiens) [PTP-003, Protein tyrosine phosphatase, receptor-type, Z polypeptide 1 peptide]	100.3	100.1	100.0	100.4	96.1	100.0	100.5	100.9	99.07 % of Initial	97.95 % of Initial	98.68 % of Initial	100.0	98.29 % of Initial	97.11 % of Initial	98.29 % of Initial	100.0	99.11 % of Initial	97.48 % of Initial	98.57 % of Initial	100.0	–
AMTQLLAGV (listed as Homo sapiens) [TNC-001, Tenascin C peptide]	100.5	100.2	100.0	100.0	95.7	100.0	100.6	100.4	99.02 % of Initial	98.10 % of Initial	98.72 % of Initial	100.0	97.86 % of Initial	96.80 % of Initial	97.21 % of Initial	100.0	99.01 % of Initial	97.61 % of Initial	98.57 % of Initial	100.0	–
GLWHHQTEV (listed as Homo sapiens) [NRCAM-001, Neuronal cell adhesion molecule peptide]	99.9	99.5	100.0	99.8	95.6	100.0	100.0	100.2	99.13 % of Initial	98.17 % of Initial	98.79 % of Initial	100.0	97.90 % of Initial	96.73 % of Initial	97.59 % of Initial	100.0	99.23 % of Initial	97.86 % of Initial	98.91 % of Initial	100.0	–
ALWAWPSEL (listed as Homo sapiens) [BCA-002, Brevican tumour-associated peptide]	99.8	98.9	100.0	99.9	95.4	100.0	99.6	100.1	99.13 % of Initial	98.04 % of Initial	98.73 % of Initial	100.0	98.20 % of Initial	97.05 % of Initial	97.88 % of Initial	100.0	99.17 % of Initial	97.61 % of Initial	98.61 % of Initial	100.0	–
NLDTLMTYV (listed as Homo sapiens) [NLGN4X-001, Neuroligin 4, X-linked peptide]	100.8	100.5	100.0	99.9	95.7	100.0	100.9	100.5	99.12 % of Initial	98.24 % of Initial	98.84 % of Initial	100.0	97.90 % of Initial	96.30 % of Initial	96.41 % of Initial	100.0	99.05 % of Initial	97.60 % of Initial	98.62 % of Initial	100.0	–
